Publication PMC1807967
Where two headings read alike, the source gives them in different places.

What was measured:
Assay in all cases: EMSA
ttMutS2 [1] = molecular target: T1, ttMutS2 (Thermus thermophilus, UniProt Q5SHT5 1-744)
T1 sequence: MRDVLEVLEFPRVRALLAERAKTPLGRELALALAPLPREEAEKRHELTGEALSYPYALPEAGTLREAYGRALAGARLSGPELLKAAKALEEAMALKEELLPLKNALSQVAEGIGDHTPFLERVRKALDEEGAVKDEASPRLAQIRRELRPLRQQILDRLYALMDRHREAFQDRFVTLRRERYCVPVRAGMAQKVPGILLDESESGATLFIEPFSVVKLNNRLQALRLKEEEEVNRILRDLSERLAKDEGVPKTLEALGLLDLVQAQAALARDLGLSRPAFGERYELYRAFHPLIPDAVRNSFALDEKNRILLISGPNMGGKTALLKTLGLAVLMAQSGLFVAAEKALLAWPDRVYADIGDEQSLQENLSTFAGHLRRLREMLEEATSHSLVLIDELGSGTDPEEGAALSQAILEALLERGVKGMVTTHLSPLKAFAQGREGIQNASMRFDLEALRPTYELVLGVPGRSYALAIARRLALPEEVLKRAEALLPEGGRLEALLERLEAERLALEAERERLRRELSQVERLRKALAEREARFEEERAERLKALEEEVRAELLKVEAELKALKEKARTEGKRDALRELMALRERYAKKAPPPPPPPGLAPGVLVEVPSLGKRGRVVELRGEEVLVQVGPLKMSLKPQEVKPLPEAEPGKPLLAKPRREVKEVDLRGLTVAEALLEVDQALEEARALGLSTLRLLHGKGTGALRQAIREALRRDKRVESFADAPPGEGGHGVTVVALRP

[2] = molecular target: T2, N60-ttMutS2 (Smr-deleted) (Thermus thermophilus, UniProt Q5SHT5 1-540)
T2 sequence: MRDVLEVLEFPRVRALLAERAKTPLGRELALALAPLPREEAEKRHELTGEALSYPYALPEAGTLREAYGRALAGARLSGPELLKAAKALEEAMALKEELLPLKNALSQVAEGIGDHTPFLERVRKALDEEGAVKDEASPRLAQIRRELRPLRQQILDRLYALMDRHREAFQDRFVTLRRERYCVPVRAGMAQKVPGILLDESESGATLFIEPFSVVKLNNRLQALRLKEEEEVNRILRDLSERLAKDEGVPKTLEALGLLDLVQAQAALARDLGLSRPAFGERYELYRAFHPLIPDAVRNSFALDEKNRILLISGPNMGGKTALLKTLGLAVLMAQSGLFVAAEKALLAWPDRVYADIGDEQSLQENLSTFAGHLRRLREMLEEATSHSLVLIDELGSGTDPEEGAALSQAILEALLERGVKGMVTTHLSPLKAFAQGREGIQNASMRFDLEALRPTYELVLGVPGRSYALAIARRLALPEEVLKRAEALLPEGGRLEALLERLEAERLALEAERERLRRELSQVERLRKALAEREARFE

ttMutS2 [3] = molecular target: T1, ttMutS2; remark: listed apart in the source
[4] = molecular target: T2, N60-ttMutS2 (Smr-deleted); remark: listed apart in the source
ttSmr = molecular target: T3, ttSmr (Thermus thermophilus, UniProt Q5SHT5 621-744)
T3 sequence: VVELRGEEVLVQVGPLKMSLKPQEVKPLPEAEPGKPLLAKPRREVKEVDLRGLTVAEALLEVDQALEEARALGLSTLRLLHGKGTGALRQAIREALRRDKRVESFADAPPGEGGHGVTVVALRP

B1: 20 bp dsDNA (dsDNA)
DNA 1: ATGTGAATCAGTATGGTTTC
DNA 2: GAAACCATACTGATTCACAT
B1: binds (ttMutS2 [1]); binds [2].

ATGTGAATCAGTATGGTTTC (ssDNA) [20mer ssDNA]: no binding (ttMutS2 [3]); no binding [4]; binds (ttSmr).
